# Earlier results in paper PMC10301793 (Marine Drugs, 2023).
# Where no end group is shown, it is not given here.
# Target: α6/α3β4 nAChR (Rattus norvegicus, UniProt P04757+P12392+P43143)
# Settings: cited from earlier work
substance,measurement,value
"[D1G,∆Q14]LvIC: LvIC analogue (GCCANPVCNGKHC-NH2; ends and bridges not checked)",IC50,19 nM
